Measured values from PMC9800336, “Exploration of the cysteine reactivity of human inducible Hsp70 and cognate Hsc70” (The Journal of Biological Chemistry, 2022).
Ends that are not written are not given here. * marks the point of attachment. FITC = O=C1OC2(c3ccc(O)cc3Oc3cc(O)ccc32)c2ccc(NC(=S)*)cc21

Experiments:
Details in all cases: both partners purified
[1] = biological target: T1, hHsp70-C17/C574/C603 (hHsp70 C267S/C306S), untreated control (human, UniProt P0DMV8 1-641, C267S | C306S); test: fluorescence polarisation; steady state; increasing concentrations of Hsp70 with 20 nM FAR peptide, 60-min incubation, RT, buffer B (50 mM Tris-HCl pH 7.5, 100 mM KCl, 5 mM MgCl2); single site-binding model
T1 construct: human HspA1A (hHsp70), UniProtKB P0DMV8, full length with C267S/C306S; also called unmodified form
T1 sequence (P0DMV8 whole entry C267S/C306S): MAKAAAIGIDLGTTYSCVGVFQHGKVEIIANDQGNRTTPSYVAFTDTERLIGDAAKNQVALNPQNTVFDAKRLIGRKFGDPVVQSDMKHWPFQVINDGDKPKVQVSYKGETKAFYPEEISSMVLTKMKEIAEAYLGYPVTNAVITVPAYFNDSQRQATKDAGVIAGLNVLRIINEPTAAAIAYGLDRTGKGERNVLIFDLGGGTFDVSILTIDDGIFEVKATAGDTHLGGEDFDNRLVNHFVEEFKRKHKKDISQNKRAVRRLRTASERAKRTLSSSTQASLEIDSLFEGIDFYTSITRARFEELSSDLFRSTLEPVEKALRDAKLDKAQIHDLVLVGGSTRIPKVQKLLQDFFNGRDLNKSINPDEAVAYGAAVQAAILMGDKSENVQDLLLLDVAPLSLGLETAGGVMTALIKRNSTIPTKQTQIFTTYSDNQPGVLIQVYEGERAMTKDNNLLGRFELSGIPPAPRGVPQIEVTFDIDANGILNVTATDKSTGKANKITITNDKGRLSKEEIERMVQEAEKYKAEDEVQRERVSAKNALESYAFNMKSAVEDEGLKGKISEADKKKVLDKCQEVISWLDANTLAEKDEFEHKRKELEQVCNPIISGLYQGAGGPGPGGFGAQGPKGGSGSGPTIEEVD

[2] = biological target: T2, disulfide-bonded hHsp70-C17/C574/C603 (human, UniProt P0DMV8 1-641, C267S | C306S, intramolecular disulfide bond between Cys574 and Cys603); test: as above
T2 construct: human HspA1A (hHsp70), UniProtKB P0DMV8, full length with C267S/C306S; also called -S-S-; disulfide-bonded form of full length hHsp70
T2 sequence (P0DMV8 whole entry C267S/C306S): as above

[3] = biological target: T3, WT hHsp70 (human HspA1A) (human, UniProt P0DMV8 1-641); test: fluorescence polarisation; kinetic; 20 nM FAR mixed with 10 μM hHsp70 in the presence of 1 mM ADP, RT, FP recorded against time; diamide or diamide with GSH added at 60 min, DTT at 120 min
T3 construct: human HspA1A (hHsp70), UniProtKB P0DMV8, full length; also called HspA1A/B; human inducible Hsp70
T3 sequence (P0DMV8 whole entry): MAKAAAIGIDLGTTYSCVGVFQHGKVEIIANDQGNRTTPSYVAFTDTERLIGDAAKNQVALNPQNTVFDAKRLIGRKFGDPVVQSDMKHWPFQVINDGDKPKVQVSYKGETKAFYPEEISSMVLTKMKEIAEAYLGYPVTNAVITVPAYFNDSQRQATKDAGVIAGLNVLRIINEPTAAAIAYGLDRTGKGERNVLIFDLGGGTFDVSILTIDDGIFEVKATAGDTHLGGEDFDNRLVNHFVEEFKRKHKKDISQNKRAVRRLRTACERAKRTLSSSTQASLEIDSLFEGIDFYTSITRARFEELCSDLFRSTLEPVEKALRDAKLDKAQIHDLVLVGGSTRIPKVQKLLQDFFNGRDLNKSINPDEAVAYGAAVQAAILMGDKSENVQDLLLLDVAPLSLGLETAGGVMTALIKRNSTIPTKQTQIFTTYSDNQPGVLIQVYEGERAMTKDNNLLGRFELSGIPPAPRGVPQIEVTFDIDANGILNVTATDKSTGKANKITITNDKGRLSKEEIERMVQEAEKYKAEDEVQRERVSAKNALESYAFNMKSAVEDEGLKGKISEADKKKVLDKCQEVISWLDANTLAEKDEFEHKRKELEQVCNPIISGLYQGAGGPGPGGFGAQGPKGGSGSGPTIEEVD

binding result [1]: binds | binding result [2]: binds | binding result [3]: binds
B1: FITC-ALLLSAPRR peptide (peptide)
peptide: {FITC}-ALLLSAPRR
notes: fluorescently labelled model substrate peptide of Hsp70; also called FAR; FAR peptide
